# From patent US20210284724A1 (I MAB BIOPHARMA US, published 2021)
# Substitutions are numbered along the chain they refer to.
# B1: 339A9E7 (antibody, V domains shown)
# VH: DVQLQESGPGLVKPSQSLSLTCTVTGYSITSDYAWNWNRQFPGNKLEWMGYISYSGDTSYNPSLRSRISITRDTSKNQFFLQLNSVTAEDTAKYYCVAGHFDYWGQGTTLTVSS
# VL: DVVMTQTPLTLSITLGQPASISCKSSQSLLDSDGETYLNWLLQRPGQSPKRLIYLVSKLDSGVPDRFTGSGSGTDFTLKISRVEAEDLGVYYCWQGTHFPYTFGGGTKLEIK
# notes: Hybridoma mAb
# B2: 329F2E1 (antibody, V domains shown)
# VH: EVKLLQSGGGLVQPGGSLKLSCAASGIDFSRYWMSWVRRAPGKGLEWIGEINPDSSTINYAPSLKDKFIISRDNAKNTLYLQMSKVRSEDTALYYCARQDDYDYYAMDYWGQGTSVTVSS
# VL: DIVMTQSHKFMSTSVGDRVSITCKASQDVSTGVAWYQQKPGQSPKLLIYSASYRYTGVPDRFTGSGSRTDFTFTISSVQTEDPAVYYCHQYYTIPLTFGAGTELELK
# notes: Hybridoma mAb
# B3: 71F4A3 (antibody, V domains shown)
# VH: B2 VH with D103E
# VL: B2 VL with F10S, S30N, Q37R, R68G, T80A, P83L, H89Q, T93S, I94T, E103K
# notes: Hybridoma mAb
# B4: 1H3A11 (antibody, V domains shown)
# VH: EVQLVESGGGLVKPGGSLKLSCAASGFTFSSYAMSWVRQTPEKRLEWVATISDGGSDTYYPDNVKGRFTISRDNAKNNLYLQMSHLKSEDTAMYYCARDYYGSSYEDYAMDYWGQGTSVTVSS
# VL: DIQMTQSPSSLSASLGGKVTITCKASQDINKYITWYQHKPGKGPRLLIHYTSTLQPGIPSRFSGSGSGRDYSFSISNLEPEDIATYYCLQYDNLYTFGGGTKLEIK
# notes: Hybridoma mAb
# B5: 21H12D9 (antibody, V domains shown)
# VH: EVQLQQSGPVLVRPGASVKMSCKASGYTFTDYYMNWVKQSHGKSLEWIGVINPNNGGTTYKEKFKGKATLTVDKSSGTAYMELNSLTSEDSAVYYCARDDYDAGYWGQGTTLTVSS
# VL: DIVMTQFQKFMSTTVGDRVSITCKASQNVDTAVAWYQHKPGQSPKLLIYSASHRYTGVPDRFTGSGSGTDFTLTISNVQSEDLADYFCQQYTDFPLTFGAGTKLELK
# notes: Hybridoma mAb
# B6: 430D9B3 (antibody, V domains shown)
# VH: QVTLKESGPEILQPSQTLSLTCTFSGFSLSPYGMGVGWIRQPSGKGLEWLANIWWDDDKYYNPSLINRLTISKDTSNNQAFLKITNVDTTDSATYYCVRSELVMPYVPFDYWGQGVMVTVSS
# VL: DIQMTQSPSSMSASLGDRVTITCQASQDIENDLIWFQQKPGKSPRPLIYYATNLANGVPSRFSGRRSESNYSLTISSLESEDMADYHCLQFKQYPYTFGAGTKLELK
# notes: Hybridoma mAb
# B7: 418D3H6 (antibody, V domains shown)
# VH: B6 VH with E10G, P31T, D74N, T89A, T90P, S92T, V98A, Y111F, V116I
# VL: DIQMTQSPSSLSASLGDRITMTCQASQDIGIELIWFQQKPGKSPWPVIYYTANLASGVPSRFSGSRSGSHYSLTISSLESEDMADYHCLQYKQYPFTFGSGTKLEIK
# notes: Hybridoma mAb
# B8: 423A6H6 (antibody, V domains shown)
# VH: B6 VH with E10G, P31T, I66Q, T90A, S92T, V98A, V103I, M117R
# VL: B6 VL with E30D, D32H, L47M, R65S, E68G, N70D, Y96F, A100S, L106I
# notes: Hybridoma mAb
# B9: 402H2G12 (antibody, V domains shown)
# VH: B6 VH with E10G, P31T, I66Q, T85N, T90A, S92T, V98A, V103I, M117R
# VL: B6 VL with E30D, D32H, L47M, R65S, E68G, N70D, Y96F, A100S, L106I
# notes: Hybridoma mAb
# B10: 432C12E1 (antibody, V domains shown)
# VH: B6 VH with E10G, P31T, I66K, T90A, S92T, V98A, L102I
# VL: B6 VL with E30G, L47M, R65S, R66G, E68G, N70V, Y96F, A100S, L106I
# notes: Hybridoma mAb
# B11: 424H7F2 (antibody, V domains shown)
# VH: B6 VH with S19T
# VL: B6 VL with S72A
# notes: Hybridoma mAb; also called surrogate anti-CXCL13 antibody
# B12: 427C4F11 (antibody, V domains shown)
# VH: QVTLKESGPGILQPSQTLSLTCTFSGFSLTTYGMGVGWIRQPSGKGLEWLANIWWDDDKYSNPSLQSRLTISKDTSNNQAFLTITNVDTADTATYYCARSELVMPYVPFDYWGQGVRVTVSS
# VL: B6 VL with E30D, D32H, K42R, L47M, R65S, E68G, N70D, Y96F, A100S, L106I
# notes: Hybridoma mAb
# B13: 442C9H4 (antibody, V domains shown)
# VH: B6 VH with E10G, T23S, P31T, D74N, T89A, T90P, S92T, V98A, Y111F, V116I
# VL: B7 VL with M21I, E32D
# notes: Hybridoma mAb
# B14: 416C9H8 (antibody, V domains shown)
# VH: B6 VH
# VL: B6 VL with I34V, K42R, N70D
# notes: Hybridoma mAb
# B15: 445A6G7 (antibody, V domains shown)
# VH: B6 VH
# VL: B6 VL with E30G
# notes: Hybridoma mAb
# B16: 537C8D7 (antibody, V domains shown)
# VH: EVQLVESGGGLVLPGRSLKLSCAASGFTFSDYAMAWVRQAPKKGLEWVATVFYDGSDTFYRDSVKGRFTISRDNAKSTLYLQMDSLRSEDTATYYCAREGDYYSRHVYVGYNWFPHWGQGTLVTVSS
# VL: DIRMTQSPASLSASLGETVNIECLTSEDINSELAWYQQKPGKFPQFLIYNANSLQDGVPSRFSGSGSGTQYSLKINSLQSEDVATYFCQQYNSYPLTFGSGTELEIK
# notes: Hybridoma mAb
# B17: 414D10F5 (antibody, V domains shown)
# VH: EVQLAESGGGLVQPGRSLKLSCSASGFTFSDYYMAWFRQAPPKGLEWVASISYDGGDSFYRDSVKGRFTISRDNAKSSLYLQMDSLRSEDTATYYCTTEEDYSGSFPDYWGQGVMVTVSS
# VL: DIQMTQSPSFLSASVGDRVTINCKASQNINKYLNWYQQKLGEAPKRLIYDTNNLQAGIPSRFSGSGSGTDYTLTINSLQPEDFATYFCLQHNSLYTFGGGTKLELK
# notes: Hybridoma mAb
# B18: 397C3B3 (antibody, V domains shown)
# VH: B1 VH with N38I, D57S, R65K, T71N, A88T, K93T
# VL: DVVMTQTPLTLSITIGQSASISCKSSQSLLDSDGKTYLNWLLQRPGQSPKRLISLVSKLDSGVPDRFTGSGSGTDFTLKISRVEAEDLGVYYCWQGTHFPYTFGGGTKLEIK
# notes: Hybridoma mAb
# B19: 178B2E8 (antibody, V domains shown)
# VH: EVKLVESEGGLVQPGSSMKLSCTASGFTFTDYYMTWVRQVPEKGLEWVANINYDGSRTNYLDSLKSRFIISRDNAKNILYLQMSSLKSEDTATYYCARDGNYHFYGMDYWGQGTSVTVSS
# VL: DFVLTQSHKFMSTSVGDRVSITCKASQDVSTAVAWYQQKPGQSPQLLIYWASTRHTGVPDRFTGSGSGTDYTLTISSVQAEDLALYYCQQHYSTPWTFGGGTKLEIK
# notes: Hybridoma mAb
# B20: 348B10B1 (antibody, V domains shown)
# VH: EVQLQQSGPELVKPGASVKISCKTSGYTFTEYIMHWVKQSHGRSLEWIGGINPDNGDTTYNQKFKGKATLTVDKSSTTAYMELRSLTSEDSAVYYCAGGVLDYWGQGTSVTVSS
# VL: not shown
# notes: Hybridoma mAb
# B21: 360A3D4E3 (antibody, V domains shown)
# VH: B20 VH with G42E, N52H, K65T
# VL: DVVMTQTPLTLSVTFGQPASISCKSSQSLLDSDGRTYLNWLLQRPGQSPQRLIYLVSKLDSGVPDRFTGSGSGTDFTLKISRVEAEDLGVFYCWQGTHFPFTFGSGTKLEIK
# notes: Hybridoma mAb
# B22: 339H3E2 (antibody, V domains shown)
# VH: B20 VH with D54N, D57G, T77S, L101M
# VL: not shown
# notes: Hybridoma mAb
# Biological target: T1, human CXCL13 (human, UniProt O43927 23-109)
# T1 construct: also called huCXCL13; rhCXCL13
# T1 sequence (looked up): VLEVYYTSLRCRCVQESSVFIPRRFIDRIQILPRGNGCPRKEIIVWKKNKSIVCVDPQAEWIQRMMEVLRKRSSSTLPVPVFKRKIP
# Experiment: cell-based blocking ELISA, CXCL13 to CHO-K1-CXCR5
# Protocol: Splenocytes were electro-fused with mouse myeloma cell line SP2/0 cells and plated into 96-well culture plate. The hybridoma supernatants were tested by ELISA binding assay for anti-human CXCL13 binders. Supernatants of positive binding clones were screened for function in blocking of human CXCL13 binding to its […] CXCR5 by Cell-based receptor blocking ELISA assay. Briefly, 5×10⁴ CHO-K1-CXCR5 cells were plated in 96-well plate with 100 μl of culture medium and incubated at 37° C. overnight. Cells were fixed with 100 μl of 2% PFA at RT for 1 hr after washing with PBS for 1 time. Blocking was done with 1% BSA in PBST for 1 hr at RT. Supernatants were diluted with PBS and pre-incubated with equal volume of 0.3 μg/ml human CXCL13 for 30 min at RT. 100 μl of antibody-antigen complex was then transferred into each cell wells for 30 min at RT. The samples were washed with 1×PBST for 3 times and 100 μl of 3 μg/ml of human Mab5261 antibody was add into each well to capture human CXCL13 and anti-human Fc-HRP was used to indirectly detect human CXCL13 when it bound to CHO-K1-CXCR5 cells. […] Reading was done at […].
# Those antibodies were purified from hybridoma supernatants by binding with Protein G column and characterized by ELISA binding assays and cell-based blocking ELISA assays. […] 11/20 clones bound to both human CXCL13 and cynomolgus CXCL13 appeared to completely block human CXCL13 to human CXCR5. 11 blockers bound to both huCXCL13 and cynoCXCL13 were produced as chimeric human IgG1 antibodies for further Characterization.
row,Binder,IC50 [µg/mL]
1,B1,13.3
2,B2,0.615
3,B3,3.02
4,B4,10.1
5,B5,1.27
6,B6,3.85
7,B7,23.3
8,B8,8.96
9,B9,8.72
10,B10,12.7
11,B11,1.1
12,B12,7.92
13,B13,18.2
14,B14,8.46
15,B15,14.9
16,B16,2.46
17,B17,1.14

# Biological target: T2, cynomolgus CXCL13 (cynomolgus, UniProt H6WS58 23-109)
# T2 construct: also called cynoCXCL13; Cyno CXCL13
# T2 sequence: T1 sequence (looked up) with S8H, L32S, I52V, M65I, V68M, R72K, L77P
# Experiment: ELISA, coated antigen
Binder,EC50 [µg/mL],binding result
B1,0.0245,–
B18,0.401,–
B2,0.0125,–
B3,1.01,–
B4,0.145,–
B5,0.0619,–
B19,–,no binding
B6,–,no binding
B7,–,no binding
B8,–,no binding
B9,–,no binding
B10,–,no binding
B11,–,no binding
B12,–,no binding
B13,–,no binding
B14,–,no binding
B15,–,no binding
B20,0.0166,–
B21,0.0178,–
B22,0.0319,–
B16,–,no binding
B17,0.019,–

# Biological target: T1, human CXCL13
# Experiment: ELISA, coated antigen
row,Binder,EC50 [µg/mL]
1,B1,0.0216
2,B18,0.344
3,B2,0.0166
4,B3,0.0266
5,B4,0.0633
6,B5,0.0156
7,B19,0.42
8,B6,0.0265
9,B7,48.7
10,B8,1.56
11,B9,0.00578
12,B10,5.1
13,B11,0.0109
14,B12,1.33
15,B13,9.85
16,B14,5.84
17,B15,2.91
18,B20,0.0124
19,B21,0.00664
20,B22,0.0388
21,B16,0.0128
22,B17,0.0104

# Biological target: T3, mouse CXCL13 (mouse, UniProt O55038 22-109)
# T3 construct: also called rmCXCL13
# T3 sequence (looked up): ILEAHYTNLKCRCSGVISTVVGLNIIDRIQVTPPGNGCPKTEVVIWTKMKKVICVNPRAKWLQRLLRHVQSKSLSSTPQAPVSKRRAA
# Experiment: ELISA, coated antigen
Binder,binding result,EC50 [µg/mL]
B1,no binding,–
B18,no binding,–
B2,no binding,–
B3,no binding,–
B4,no binding,–
B5,no binding,–
B19,no binding,–
B6,–,0.0547
B7,–,7.49
B8,–,0.248
B9,–,0.0357
B10,–,0.744
B11,–,0.0121
B12,–,0.202
B13,–,2.96
B14,–,1.97
B15,–,1.23
B20,no binding,–
B21,no binding,–
B22,no binding,–
B16,–,0.0375
B17,no binding,–
